Reference: the domain aggregation screens of Martell et al. (2025)

Assay: soluble fraction after stress (log2 fold change); higher = more stays soluble; pooled small domains, quantitative proteomics
Conditions: stress: pH 4
Procedure, shortened: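 Aggregation propensity is read out as the fold change in how much of each domain remains soluble after acid stress. The custom small-domain libraries were pooled, held at pH 4 and analysed with high-throughput quantitative proteomics. On the log2 scale used, higher values mean more of the domain stayed soluble.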

Row | Sequence | soluble fraction (log2)
1 | HMLTRSASREELDQLLKRLRQNLKQKNFFWPPDKEKSLVLYLENLFSKFPLNSSDIRFLHGIIRTLSEK | -0.114
2 | HMLVGKSVIMKTNESSSGMIAGKVNYWENIDGKIYLGINGKLYDIADVDTVLDNDYYDKLVN | -1.14
3 | HMLVKKYTEEETGRQAELSKQLAELSKAYYNTGNSMVDDAVFDKLRDELSSLEKESGFAYDISPNVS | -0.276
4 | HMLVNNSTIETVIDFANVKFGMELTKDQVSEQLRNLSFSQTLKLINSMKADDNDAFSEIIDL | -1.89
5 | HMLVSFGDHLKRYIYERAGIEEPFGEVPQEIYRDIAVDSFRETYTPKSMNPTSTKLPALVNNWLIQ | -0.388
6 | HMLVSVSNYLGQNVDTVKSDLEALGLVVKLKEQQTDRESENGAVLEQSIEGGSKVSAGTPITLTYGK | -0.00697
7 | HMLWTHIALPVRSLDDTMAFYDKYTTLENIHERQDPETNMRSVWLANPGDKTEQAARFVLVLI | -0.126
8 | HMMTDAEKTFIFFSHLSSVEDHIAYGDKQFYMSLFWQHENKRELSSSQLYHLERLYNKYSMEEIEKKEEFS | -1.07
9 | HMMTDEEFLRIAGYMKQRYGIDLGQKKVIMNGRLENHIKSGGWSSFHAFMNDLEKDSSGKLEKELVNLLTT | -0.367
10 | HMMTLEESYKLLQVSHNASDIEITKAFKKLALLYHPDKNPSNIDWANKAMASINVAYNTIITHRFKEK | -0.2
11 | HMNAAYDEELDFIFSLSEKGKWEEAEAEIGLLLQKHPEDATLQRIGEWVTTQKILLRQQAVEDRIRS | -0.679
12 | HMNAEWMFDARKIPGLVMNYLRRIAVRAIEEKHYSPELVADLFGIDRTSIYDWLRKYRQQGEEALDTRKA | 0.0142
13 | HMNAFEIYPNPASNLIRIDAEFTVAKIFSQTGNLIQTSTTKEIDVYNLANGIYFVKLDDSPSMVKFVIN | -1.09
14 | HMNALTEAESKLLERMNKAGIHAEITTKKAAGILQRSENGARTVLNSLVKKGYLTVETNKAPYIYHLH | 0.301
15 | HMNAMFEKVLAAVMGFIGVSAFAKNADGKSEMTSDQEKRLTDKWGSKFVEEFKNDLLEYEKNGNAAEDAV | -0.332
16 | HMNAPKKPLSAYFLFSQEERLKVKAENPDYSITEVAKELGKRWATLNPDIKTVYEQRYQDARRIYETEMNT | -0.102
17 | HMNAQLTTIPDLDGMNMRAATAMLSSLGLEVKRIGSGTVFAQFPKAGAAMRPGSMVTIRGKAKSL | 0.22
18 | HMNATLSSSYPTSVVTDGEIYKLTFGLNGKYNGQEQITVKPHGDSNIYDSGGLRAYQNTQSNNVVTLN | -0.254
19 | HMNATQLSNTQKQIRTQLLERLSNNPLTVKQLADRMFVPIDTILKEITALIQEQKIIEDKGGKLQIN | 0.168
20 | HMNAVDLLSPQEQRIFELIGEGMSNRQIADVMYLAEKTVKNYVSNVLMKLGMERRTEAAALAARLDERQK | -0.468
21 | HMNAVITTQKAKQIALAHAGLSEADVNYVKAELENDDGVQVYDIEFYSKNIEYDYDINAVTGEIMSFDHDI | -0.623
22 | HMNAVYPNPFVSEIYIGENNRSVEIYNLNGGLVYGMSQPSSRIDVSGLAAGSYILIKKDSSGHISSHKIMK | -0.261
23 | HMNDAARQTTDILQHVRSSGSISFRDLWRLFMPFMAYRDFDAAVKSLVAAGHIATTENERKELHLIAF | -1.42
24 | HMNDEFYAVVRESYAGYALVKPLDEDVGYDILSVSVKNLKVGDIIRLKVKNIKEIYPPEAEVLEVEVLQ | -1.59
25 | HMNDEQFAIAKNDLLLSLYDGKEVNNSAAEYIIAWESLEKSPSDYISSQLKNTAESIIKISFD | 0.0518

Row | Sequence | soluble fraction (log2)
26 | HMNDFVTVPDLQGIFYSEAIKKIDKMGLKEGSIQFVNQDKFLPNTVLNQNPKEGTKVSQDSPINLIIS | -0.594
27 | HMNDILETISNQIRDLRVSKKITQQELAERTNLSVPYISQIENGHRNISLETFIKIVDALDIPLSDFFLP | -1.11
28 | HMNDITVNVEDSKLIVTSNNPEKLPLYIMDIQGHILDKSEITAGTYSFPISDRGTYIVRIGENVYKVI | 0.186
29 | HMNDLKVGELAKRGNVTAETVRHYTREGLLSPTRHPDNGYQLFSATDLERLHFIQRARKLGFSVAEIRDIL | -0.278
30 | HMNDLVTWDRYKIELGDTLSEIAQKLVTRVDILKTVNQIQGTRIIAGNSLMVPRTTDTNVLTYL | -0.728
31 | HMNDPIGDMLTRIRNAQMRGKSTVSTPASKLRAWVLEVLASEGYIRGFERATTDNGQGELVISLD | -0.253
32 | HMNDREAAYEDLPDELVRVGQKVFIKSLETEGVIVQPPNKKGEVRVRSGNISTNVKRSDLGLPIEKP | 0.149
33 | HMNDRRQDVFELLKSSERPVSAADLAHKFGVTRQVIVADIALLRASDIDIVSTNRGYILKANL | 0.0252
34 | HMNDYNLTDREKEVLTFLFQGLEYKEIGMKMSVSPNTIRNHISNIYKKLHVTSKTQAIRVFLNN | -0.0426
35 | HMNEAMIMIDLKGKSRDEAVKELDELNLKYRFTGNGIVKDQKPKAGEEINSDTVVEVELSEIK | -0.105
36 | HMNEDYFTIAGYASLRGVNIDTSKANMLGRKATKLSREYGYDIGKVTDTRFGKVNSYHLDILKSIFEF | -0.646
37 | HMNEFSYLSELGSEKGDLIKGLQLVQSREGYVSDDAIRAISKHFSIAEAEVEGVLTFYAQFK | -1.25
38 | HMNEIESFSNTKNPFSLTFKTSKDSSYKVEASSNLKKWTTLSQIKGTGNPITFTESRRILFRKQYYRVTLS | 0.102
39 | HMNEISFYPNPAKESLTVKGLSEITSYSISDINGKLIQYGTTFDRINLEKLTKGFYFLTIGNTISKKLIV | -0.0595
40 | HMNEISLKEITIEEDHPWRDKKIKELDLKEHILVAMIRRKDQDIIPNGETKIYKDDILVIYD | -1.73
41 | HMNEKFNVYPIPVYNNLNITGLSKPVTYLISSIDGKTIKNGVFQESIDVSDLKSGLYFLQVETKDPVKFIK | -0.999
42 | HMNEKLNEYLNQVKAYLNTSDNKEDIIKELEAVVLEKAEKKYGQITDESISKILSEFGSPAEVAKEYS | -0.103
43 | HMNEKLRNYIDTLFEHAPTTVRAVELKEEMFQNLTDKYNDLIAQGKSEEAAFNIAVASIGDVDSLIAGLS | -0.459
44 | HMNELGSLIKRKREELGLSQEELARILGYKHKSSINKIELGLADVPRTKVPAFAKALGMTPVEFS | 0.063
45 | HMNELPSVIIMKNGRTRPYELQEISKDEEWLNQTIREHGIEPKDIFIAEFWDGRTAFILNDGRIVK | -1.14
46 | HMNERIKSLRKALGLTQQEFADKLGISRGNIGAYEVGKNAPSDAVISLIVRIFNTNENWLRTGEGEM | -0.246
47 | HMNETSRTRALNILGLKATATQEDIKKAYRSLAKEYHPDKLVGVSEGVKKISEEKFREINEAYEYLI | -0.00502
48 | HMNEVIIKNWSNAVGRNIKIKTKRGRPIFGRLLAINDQQLTIASKYMRGNATITVAREDVVSMSVS | 0.22
49 | HMNEVRINTAHIEHKYLGEVKVLDIQEMRNARGRDADPLAFLAIRFWSPRGVLVRVKDSRDATPYWLIS | -0.227
50 | HMNEYHRNISDEEFVRDIKETAIKLKKETLTGVEYSQNGKYHASTIIHRFGSWKKALELAELNTK | 0.257

Row | Sequence | soluble fraction (log2)
51 | HMNFNYPVIVKNSRINVSGVLSAAKLYTINGQLLQSYKGSGEFTSKTLTKGIYILQVDNARTKVLV | ≥ 0.43
52 | HMNFSKEYILVHSYKEIDILDALIVKYEATLVNREFDLFINSYIKINEDYAKLFRDEIISKTSGSMSIKEL | -2.12
53 | HMNFTKHPENPNFVVYRFTDPERANSFRAELIANNISFEEDTEKKKQLIYTLFAIHTKYYNQSMQINIK | -0.0767
54 | HMNFTVTDKNAVLYSNDNTKVYESPDINSKLVTTIAKDLPVNVTGITSNGWFRISLEGTYYVPGNGLEQR | -0.251
55 | HMNGADPYEQLGVTRDASDDELKAAHRKLSRENHPDTLMAKGMPPEFIEQANDKMARINAAWDQIRKERGI | 0.124
56 | HMNGAITLRVRPSDEGKRLDVFVVSQLTGYTRSFVAGLIGDRHFLVNGQPKKPGYRIKSSDTISGVIPAPA | 0.157
57 | HMNGARALAGAIAEAIRKQVYRVNERLPAERELASHYDVSRGTLRSALALLEQEGLVTRKVGSGTFVMPP | 0.161
58 | HMNGNLRAQVLELMGRADYEPLNKSELSRKLDLQGSDRSSLRILMDELERDHSVVRLKKGRFALKVV | 0.0349
59 | HMNGQFIELKNTTGTIIEARVLSFQNGKVKLQRNDGLIFVASISIFDSESIEVIKQKVAEISESKKS | -0.0246
60 | HMNGQITPSRAKEIALGHAGVSEGSANFKKIKLDNKNGRPAYEIEFIANNSRYEFEINASNGSIIKFNK | -0.0812
61 | HMNGYGALVRLGRSRGWVTVEEINDHLPESAVRTAENVQEITEALGRLSIKVFETRPDEDDLLIT | -0.613
62 | HMNHGDATTETQAEIMAILSDMKPHPITELNTIKRPYEQIDTALTYLINEEKIYRMDGMIFIG | -0.915
63 | HMNHYTEEYILKRMKDFFTTHAYITRRDIESLFGFRRSYATKWLKHFRESGVLKQSGPVNSAVYLL | -1.12
64 | HMNIAESIRKYRKASGLTQEEMAKRLGVTTPAVSKWENGITNPDIALLAPIARLFHISVDTLLSYR | 0.0976
65 | HMNIDKLVGSTGTVVRSVTPDTAGLVRVNDEDWRASAEEILYERDAIVVEGIEGVTLIVSKLS | -1.54
66 | HMNIETHIVPKLLAPIRLQEYGVGIFNNIPTKSALKKALKKQLITVDKTVATTATFIKGGETIELAYQ | -0.299
67 | HMNIGEKIKTLRENNNISIEELAEKINDSIENILKYENNELEPTLDKKLALSIALGVTLSDLS | -0.975
68 | HMNIGELINKKRTELGLTLEEVGNAVGVSKSTVKKWEDGFISNMRRDKISKLAKVLEMNPVSLITGE | -0.0212
69 | HMNIGSKLRYLIEEANITQRQLADALHISPSALNGYINQGKEPDYATLVRIADYFHTSTDYLLGHSNIR | -0.202
70 | HMNIIATHTVPAIEQKIRLQEYAISIFPQINSRSALKKAIAKKLVLLDGERASTADWIQPGQKIELLEDK | -0.274
71 | HMNILAPFWERFGLSAFAAGNYDRAEGYFRKLEQKDPNSMSVLRNLGLILMAKGDAEGAEAYLLREEKL | -0.643
72 | HMNILKKDKRLWDENNLNKPLLFELLENYDKEIFELLLTDKDIKAKFFVQAGESYVFKYDDFRFAIEQN | -1.75
73 | HMNIMAQDWISSPMGPISFKSNQHGLVKIGWGEVPRENTEQPNLEFTRKWLVDYFEGKASPLPYF | -1.55
74 | HMNIQGIFGRNLKQKRLEKGMTQEQLAEKAGVSTDTVKRYESGKYDGIRLDMAWYMANALDTPLQALLPP | 0.0744
75 | HMNISALKGKIGEVYLKIPAHNAGKGKVLISLKGTHHELYAITRSGEDISSGEFVKVIEIEDEILVVEK | -0.537
